Here are results for 1 molecule from patent publication US20190309065A1.

The target in this assay is human PD-L1 (human) (UniProt Q9NZQ7). The assay is described as follows: cell-based or functional assay.
Sequence of UniProt Q9NZQ7 (Q9NZQ7 19-290): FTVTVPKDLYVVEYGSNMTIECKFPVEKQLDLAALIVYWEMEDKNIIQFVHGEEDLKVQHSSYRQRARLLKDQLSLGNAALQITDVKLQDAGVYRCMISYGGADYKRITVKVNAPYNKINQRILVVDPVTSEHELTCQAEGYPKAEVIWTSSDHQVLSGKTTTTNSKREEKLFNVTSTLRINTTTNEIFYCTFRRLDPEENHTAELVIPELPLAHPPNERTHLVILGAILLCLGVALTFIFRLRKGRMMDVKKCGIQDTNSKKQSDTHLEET

B1: monoclonal antibody to human PD-L1, clone 29E.2A3 (mouse IgG2b) (antibody, from another filing, V domains shown)
VH: EVQLQQSGPELVKPGASVKMSCKASGYTFTSYVMHWVKQKPGQGLEWIGYVNPFNDGTKYNEMFKGKATLTSDKSSSTAYMELSSLTSEDSAVYYCARQAWGYPWGQGTLVTVSA
VL: DIVLTQSPASLAVSLGQRATISCRATESVEYYGTSLVQWYQQKPGQPPKLLIYAASSVDSGVPARFSGSGSGTDFSLTIHPVEEDDIAMYFCQQSRRVPYTFGGGTKLEIK
As for B1, the fold increase in B*4201 TL9 tetramer+ CD8 T cells, 6-day CFSE proliferation assay of PBMC with TL9 peptide plus anti-PD-L1 blocking antibody (peptide alone: 4.8-fold) was 10.3 fold and the percentage of B*4201 TL9-specific CD8 T cells after 6-day stimulation with peptide, in the presence of anti-PD-L1 blocking antibody (without it: 5.7%) came out at 12.4%.
